{
  "source": "paper PMC12678802",
  "about": "“Tudor-based proteomic strategy pan-specifically enriches and identifies protein arginine methylation” (EMBO Reports, 2025)",
  "key": {"SMN Tudor domain (SMN)": {"target": "T1, SMN Tudor domain (SMN) (Homo sapiens, UniProt Q16637)", "T1 construct": "gene SMN1; SMN Tudor domain (80–167 aa), C-terminal His6-tag", "T1 sequence (Q16637 80-167)": "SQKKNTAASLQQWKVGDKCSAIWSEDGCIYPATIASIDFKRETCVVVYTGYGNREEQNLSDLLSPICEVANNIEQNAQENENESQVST", "assay": "isothermal titration calorimetry (ITC), […] model, N fixed at […]", "format": "binding"}, "[1]": {"target": "SMN Tudor domain (80-167 aa) with a C-terminal His6-tag (UniProt Q16637)", "sequence (Q16637 80-167)": "as above", "assay": "ITC; 2 mM or 5 mM ligand in the syringe injected into 200 uM or 300 uM SMN Tudor in the cell; 1x PBS, 25 °C; one site model with stoichiometry (N) fixed at 1"}},
  "note": "Where two headings read alike, the source gives them in different places.",
  "data": [
    {"compound": "CN=C(NC)NCCC[C@H](N)C(=O)O", "note": "[sDMA, Symmetric dimethylarginine]", "values": [
      {"measurement": "Kd", "setting": "SMN Tudor domain (SMN); read-out: KD", "result": "359 ± 45", "unit": "µM"}
    ]},
    {"compound": "CNC(=N)NCCC[C@H](N)C(=O)O", "note": "[MMA, Methylarginine (L-NMMA)]", "values": [
      {"measurement": "Kd", "setting": "SMN Tudor domain (SMN)", "result": "1800 ± 322", "unit": "µM"}
    ]},
    {"compound": "SmD1-aDMA heptapeptide AGRme2aGRGR, residues 96–102 of SmD1", "values": [
      {"measurement": "Kd", "setting": "[1]", "result": 834, "unit": "µM"},
      {"measurement": "dH", "setting": "[1]", "result": -8.02, "unit": "kcal/mol"}
    ]},
    {"compound": "CN(C)C(=N)NCCC[C@H](N)C(=O)O", "note": "[aDMA, Asymmetric dimethylarginine]", "values": [
      {"measurement": "Kd", "setting": "SMN Tudor domain (SMN); read-out: KD", "result": "860 ± 34", "unit": "µM"}
    ]},
    {"compound": "SmD1 heptapeptide AGRGRGR, residues 96–102 of SmD1", "values": [
      {"measurement": "Kd", "setting": "[1]", "result": "> 2000", "unit": "µM"}
    ]},
    {"compound": "SmD1-sDMA heptapeptide AGRme2sGRGR, residues 96–102 of SmD1", "values": [
      {"measurement": "Kd", "setting": "[1]", "result": 375, "unit": "µM"},
      {"measurement": "dH", "setting": "[1]", "result": -14.5, "unit": "kcal/mol"}
    ]}
  ]
}
